Results on six molecules are retold here after publication PMC3521592 (Biochemistry, 2012).

Like-named read-outs stand apart in the source and are kept apart here.

In test [1] the target is T1, p300CH1, CH1 domain of human p300 (residues 323–424), untagged (human, UniProt Q09472 323-424). As to the kind of experiment: AUC.
The target in test [2] is T1, p300CH1, CH1 domain of human p300 …. As to the kind of experiment: pull-down.
For test [3] the target is unchanged. Description: AUC. The source holds these as a separate data set.
Test [4] deals with T2, untagged HPV16-E7_(1–98) (human papillomavirus 16 (HPV16)), P03129.
T2 chain: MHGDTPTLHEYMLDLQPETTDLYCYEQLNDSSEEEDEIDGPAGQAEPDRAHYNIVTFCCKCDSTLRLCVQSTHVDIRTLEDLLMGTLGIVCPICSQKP
Description: AUC. The settings on record: remark: other sources report otherwise.

T1 sequence (Q09472 323-424): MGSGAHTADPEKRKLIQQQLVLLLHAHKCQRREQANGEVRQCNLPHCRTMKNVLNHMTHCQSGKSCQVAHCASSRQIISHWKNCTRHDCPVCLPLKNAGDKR

B1: untagged Ad5-E1A_(1–77) (domain or fragment)
chain: MRHIICHGGVITEEMAASLLDQLIEEVLADNLPPPSHFEPPTLHELYDLDVTAPEDPNEEAVSQIFPDSVMLAVQEG
Regarding B1, the “stoichiometry N” value in test [1] is 1.

B2: 6xHis-Ad5-E1A_(1–189) (domain or fragment)
chain: MRHIICHGGVITEEMAASLLDQLIEEVLADNLPPPSHFEPPTLHELYDLDVTAPEDPNEEAVSQIFPDSVMLAVQEGIDLLTFPPAPGSPEPPHLSRQPEQPEQRALGPVSMPNLVPEVIDLTCHEAGFPPSDDEDEEGEEFVLDYVEHPGHGCRSCHYHRRNTGDPDIMCSLCYMRTCGMFVYSPVSE
For B2, the “stoichiometry N” value in test [1] was 1.

B3: GST-HPV16-E7_(1–46) (domain or fragment)
chain: MHGDTPTLHEYMLDLQPETTDLYCYEQLNDSSEEEDEIDGPAGQAE
Consider B3, for which the binding result in test [2] was “binds”.

B4: 6xHis-Ad5-E1A_(1–138) (domain or fragment)
chain: MRHIICHGGVITEEMAASLLDQLIEEVLADNLPPPSHFEPPTLHELYDLDVTAPEDPNEEAVSQIFPDSVMLAVQEGIDLLTFPPAPGSPEPPHLSRQPEQPEQRALGPVSMPNLVPEVIDLTCHEAGFPPSDDEDEE
For B4, in test [1], the “stoichiometry N” value worked out at 1.

B5: untagged HPV16-E7_(1–98) (natural protein)
chain: T2 chain
For B5, the entries for the “stoichiometry N” value in test [3] and in test [4] were 1 and 2, respectively.

B6: untagged HPV16-E7_(1–51) (domain or fragment)
chain: MHGDTPTLHEYMLDLQPETTDLYCYEQLNDSSEEEDEIDGPAGQAEPDRAH
B6: in test [3], the “stoichiometry N” value was 1.

What is called stoichiometry N is the number of molecules, sites or subunits per partner or assembly.
